Tested on: Escherichia coli TOP10
Test: shrunken log2 fold change of peptide-encoding DNA abundance (4.5 h post-induction vs induction); higher = less antimicrobial activity (less host growth inhibition)
Settings: time post-induction: 4.5 h; library: site-saturation at positions 5, 18, 19, 20
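Note: peptides expressed intracellularly from a pBAD plasmid library in pooled LB shake-flask culture, induced with 0.3% L-arabinose, DNA abundance read by NGS, three biological replicates, DESeq2 with apeglm shrinkage.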

Sequence	shrunken log2 fold change
RRIRDRPPRLPRPRPRPGNCPRP	0.153
RRIRKRPPRLPRPRPRPAGSPRP	0.0961
RRIRFRPPRLPRPRPRPEMWPRP	-0.0843
RRIRTRPPRLPRPRPRPNSCPRP	0.0686
RRIRPRPPRLPRPRPRPKDGPRP	0.0462
RRIRRRPPRLPRPRPRPRYGPRP	0.0155
RRIRSRPPRLPRPRPRPIIRPRP	-1.09
RRIRQRPPRLPRPRPRPTGVPRP	0.216
RRIRMRPPRLPRPRPRPGQTPRP	-0.00931
RRIRHRPPRLPRPRPRPMFGPRP	-0.000925
RRIRRRPPRLPRPRPRPVIEPRP	0.119
RRIRDRPPRLPRPRPRPDDSPRP	-0.0417
RRIRWRPPRLPRPRPRPSGEPRP	0.138
RRIRFRPPRLPRPRPRPDDPPRP	0.212
RRIRWRPPRLPRPRPRPKAIPRP	-0.00613
RRIRYRPPRLPRPRPRPQAWPRP	0.0215
RRIRNRPPRLPRPRPRPDDPPRP	-0.0062
RRIRRRPPRLPRPRPRPAALPRP	0.55
RRIRQRPPRLPRPRPRPMMMPRP	-0.327
RRIRLRPPRLPRPRPRPTGVPRP	-0.0506
RRIRFRPPRLPRPRPRPEHVPRP	-0.0205
RRIRNRPPRLPRPRPRPIYAPRP	-0.71
RRIRIRPPRLPRPRPRPYHGPRP	-0.0135
RRIRTRPPRLPRPRPRPACMPRP	0.0444
RRIRRRPPRLPRPRPRPLNDPRP	0.0468

Sequence	shrunken log2 fold change
RRIRARPPRLPRPRPRPDAIPRP	1.03
RRIRARPPRLPRPRPRPIDDPRP	0.178
RRIRVRPPRLPRPRPRPEHIPRP	-0.0362
RRIRDRPPRLPRPRPRPIFKPRP	-0.118
RRIRGRPPRLPRPRPRPLKQPRP	-0.115
RRIRRRPPRLPRPRPRPSKRPRP	-0.0523
RRIRMRPPRLPRPRPRPYEGPRP	-0.13
RRIRRRPPRLPRPRPRPAYLPRP	-0.35
RRIRLRPPRLPRPRPRPTRWPRP	0.456
RRIRQRPPRLPRPRPRPAFDPRP	-0.094
RRIRWRPPRLPRPRPRPIQIPRP	-0.378
RRIRRRPPRLPRPRPRPYCVPRP	-0.462
RRIRGRPPRLPRPRPRPEEFPRP	0.593
RRIRQRPPRLPRPRPRPMQTPRP	-0.0319
RRIRDRPPRLPRPRPRPVLKPRP	0.0359
RRIRFRPPRLPRPRPRPESCPRP	-0.141
RRIRIRPPRLPRPRPRPESQPRP	0.0553
RRIRMRPPRLPRPRPRPNMFPRP	0.0213
RRIRARPPRLPRPRPRPQNQPRP	-0.141
RRIRGRPPRLPRPRPRPPNEPRP	0.947
RRIRCRPPRLPRPRPRPAMYPRP	-0.265
RRIRWRPPRLPRPRPRPYEAPRP	-0.569
RRIRFRPPRLPRPRPRPHEWPRP	-0.0176
RRIRGRPPRLPRPRPRPFNCPRP	-0.116
RRIRPRPPRLPRPRPRPGKSPRP	-0.208

Sequence	shrunken log2 fold change
RRIRGRPPRLPRPRPRPFNIPRP	-0.199
RRIRGRPPRLPRPRPRPKWGPRP	0.215
RRIRARPPRLPRPRPRPAESPRP	0.531
RRIRYRPPRLPRPRPRPEVDPRP	-0.191
RRIRYRPPRLPRPRPRPRKQPRP	-0.129
RRIRPRPPRLPRPRPRPVCNPRP	-0.141
RRIRSRPPRLPRPRPRPYHWPRP	-0.479
RRIRFRPPRLPRPRPRPMNSPRP	-0.325
RRIRDRPPRLPRPRPRPPFVPRP	0.0811
RRIRLRPPRLPRPRPRPKISPRP	-0.0626
RRIRFRPPRLPRPRPRPVTQPRP	-0.244
RRIRTRPPRLPRPRPRPIMIPRP	-0.163
RRIRTRPPRLPRPRPRPKRKPRP	0.0722
RRIRVRPPRLPRPRPRPMSWPRP	0.0132
RRIRGRPPRLPRPRPRPPDIPRP	0.514
RRIRERPPRLPRPRPRPYGAPRP	-0.569
RRIRSRPPRLPRPRPRPPVCPRP	0.311
RRIRSRPPRLPRPRPRPTNEPRP	0.308
RRIRARPPRLPRPRPRPVTMPRP	0.102
RRIRQRPPRLPRPRPRPDSCPRP	0.0169
RRIRRRPPRLPRPRPRPQLNPRP	0.159
RRIRGRPPRLPRPRPRPQHCPRP	0.0523
RRIRMRPPRLPRPRPRPQVKPRP	-0.0452
RRIRKRPPRLPRPRPRPWLRPRP	0.143
RRIRPRPPRLPRPRPRPNTGPRP	0.881

Sequence	shrunken log2 fold change
RRIRPRPPRLPRPRPRPPKWPRP	0.469
RRIRPRPPRLPRPRPRPIWLPRP	-0.132
RRIRVRPPRLPRPRPRPERPPRP	0.0183
RRIRERPPRLPRPRPRPACEPRP	-0.112
RRIRRRPPRLPRPRPRPPEQPRP	0.033
RRIRDRPPRLPRPRPRPQYIPRP	-0.246
RRIRDRPPRLPRPRPRPQCYPRP	0.0803
RRIRKRPPRLPRPRPRPPNRPRP	0.151
RRIRQRPPRLPRPRPRPRFMPRP	0.137
RRIRSRPPRLPRPRPRPWNMPRP	-0.077
RRIRTRPPRLPRPRPRPWGWPRP	-0.0131
RRIRPRPPRLPRPRPRPDRDPRP	-0.0875
RRIRTRPPRLPRPRPRPNIFPRP	-0.174
RRIRVRPPRLPRPRPRPEKIPRP	-0.191
RRIRDRPPRLPRPRPRPGWNPRP	0.69
RRIRVRPPRLPRPRPRPNCEPRP	3.97
RRIRNRPPRLPRPRPRPVQQPRP	0.171
RRIRFRPPRLPRPRPRPPLTPRP	0.354
RRIRWRPPRLPRPRPRPRRYPRP	0.18
RRIRIRPPRLPRPRPRPFQFPRP	-0.237
RRIRQRPPRLPRPRPRPATEPRP	-0.037
RRIRCRPPRLPRPRPRPIELPRP	-0.0768
RRIRMRPPRLPRPRPRPRTWPRP	1.11
RRIRLRPPRLPRPRPRPVTTPRP	-0.216
RRIRVRPPRLPRPRPRPCGTPRP	-0.317

Sequence	shrunken log2 fold change
RRIRQRPPRLPRPRPRPKFMPRP	-0.18
RRIRLRPPRLPRPRPRPWTYPRP	0.0062
RRIRIRPPRLPRPRPRPFDRPRP	4.11
RRIRPRPPRLPRPRPRPLTGPRP	0.019
RRIRLRPPRLPRPRPRPYGFPRP	0.00785
RRIRDRPPRLPRPRPRPRSVPRP	0.165
RRIRHRPPRLPRPRPRPSHDPRP	-0.0756
RRIRDRPPRLPRPRPRPRMSPRP	-0.149
RRIRWRPPRLPRPRPRPHLHPRP	-0.043
RRIRVRPPRLPRPRPRPAMHPRP	0.0999
RRIRVRPPRLPRPRPRPMCRPRP	-0.0485
RRIRIRPPRLPRPRPRPMNAPRP	-0.0262
RRIRQRPPRLPRPRPRPTPQPRP	0.89
RRIRMRPPRLPRPRPRPNTRPRP	0.371
RRIRKRPPRLPRPRPRPLPWPRP	0.814
RRIRWRPPRLPRPRPRPYMDPRP	-0.551
RRIRCRPPRLPRPRPRPCSTPRP	-0.245
RRIRARPPRLPRPRPRPGGCPRP	0.81
RRIRWRPPRLPRPRPRPGDWPRP	0.655
RRIRHRPPRLPRPRPRPRNYPRP	-0.282
RRIRMRPPRLPRPRPRPLRMPRP	1.88
RRIRFRPPRLPRPRPRPDSPPRP	-0.168
RRIRYRPPRLPRPRPRPYQWPRP	-0.257
RRIRARPPRLPRPRPRPPKGPRP	0.654
RRIRSRPPRLPRPRPRPRWVPRP	0.218

From the supplement of paper PMC9112550, “Optimization of the antimicrobial peptide Bac7 by deep mutational scanning” (BMC Biology, 2022)
